According to paper PMC5595370:

Tests used:
[1] = molecular target: HPV59 L1 C175S mutant after limited trypsin digestion (crystallized pentamer) (human papillomavirus type 59); assay: crystal structure
[2] = molecular target: HPV59 L1 C175S mutant after limited trypsin digestion (crystallized pentamer) (human papillomavirus type 59); assay: AUC

Q: What does the source list for “HPV59 L1 C175S mutant after limited trypsin digestion (crystallized pentamer) (domain or fragment)”?
A: stoichiometry N [1]: 5; stoichiometry N [2]: 5
